Data on one molecule can be found in patent US20150376286A1 (Amgen, published 2015).

Experiment [1] has as its target T1, human CGRP receptor (CRLR + RAMP1) (human, UniProt Q16602 23-461; O60894 27-148).
T1 construct: also called hCGRP R; huCGRP R
In words: immunohistochemistry, CGRP/CHO cells, staining intensity (visual score). The protocol: (§1) 2-4×10⁶ cells were injected per colla plug (Integra LifeSciences Co., Plainsboro, N.J.). Colla plugs were embedded in OCT medium (Sakura Finetek Inc., Torrance, Calif.), frozen at −20° C. and cut into 20 μm sections using a cryostat. Sections were fixed with 4% paraformaldehyde for 1 hour at room temperature (RT) and subsequently washed in phosphate-buffered saline (PBS). Endogenous peroxidase was blocked with 3% H₂O₂/PBS for 15 min and sections were incubated in blocking solution (PBS with 3% normal goat serum (Vector Labs, Burlingame, Calif.) and 0.3% triton X-100) for 1 hour. […] Sections were cleared with xylene and cover slipped with Permount (Fisher Chemicals, Fair Lawn, N.J.). Immunoreactivity was analyzed using a Nikon E-800 microscope and associated software (Nikon, Melville, N.Y.).

The target of experiment [2] is T2, human adrenomedullin receptor 2 (hCRLR + hRAMP3) (human, UniProt O60896 24-148).
T2 construct: whole, on cells; CHO cell line bought from EuroScreen; also called hAM2; AM2
Kind of experiment: immunohistochemistry, CHO cells expressing recombinant human adrenomedullin receptor 2 (CRLR+RAMP3), staining intensity (visual score); the text says no staining was observed. Here is the method: as §1

Experiment [3] concerns the target T3, chimeric CGRP receptor: CRLR chimera #1 (L24 to Q33) + RAMP1 wt (human/rat chimera; human, UniProt Q16602 1-461; O60894 27-148).
T3 construct: also called CRLR L24-Q33+RAMP wt
In words: FACS on transfected 293-6E cells. Here is the method:
Cells were harvested after 72 hr, washed with PBS+0.5% BSA, and counted. Each transfected cell line was resuspended at a dilution of 5×10⁵ cells per 100 μl PBS/BSA. 100 μl of cell suspension was aliquot per well in a 96-well round-bottom plate (Falcon). The cells were pelleted at 1200 rpm for 5 min. […] Cells were incubated on ice for 1 hr. and then washed twice with PBS/BSA. […] Cells were incubated on ice in the dark for 1 hr. and then washed twice with PBS/BSA. Cells were resuspended in 200 μl PBS/BSA and analyzed using a FACS Calibur.

The target of experiment [4] is T4, human amylin AMY1 receptor (hCTR + hRAMP1) (human, UniProt P30988 25-474).
T4 construct: whole, on cells; Endogenous in MCF-7 cells (ATCC HTB-22); also called hAmylin 1; hAMY1
In words: immunohistochemistry, MCF-7 cells endogenously expressing amylin receptors, staining intensity (visual score); the text says no staining was observed. Here is the method:
as §1

In experiment [5] the target is T2, human adrenomedullin receptor 2 (hCRLR …). Kind of experiment: cell-based or functional assay.
Experiment [6] concerns the target T4, human amylin AMY1 receptor (hCTR + …). Kind of experiment: cell-based or functional assay.
Experiment [7] deals with T5, cynomolgus CGRP receptor (cynoCRLR + cynoRAMP1) (cynomolgus monkey).
T5 chain 1: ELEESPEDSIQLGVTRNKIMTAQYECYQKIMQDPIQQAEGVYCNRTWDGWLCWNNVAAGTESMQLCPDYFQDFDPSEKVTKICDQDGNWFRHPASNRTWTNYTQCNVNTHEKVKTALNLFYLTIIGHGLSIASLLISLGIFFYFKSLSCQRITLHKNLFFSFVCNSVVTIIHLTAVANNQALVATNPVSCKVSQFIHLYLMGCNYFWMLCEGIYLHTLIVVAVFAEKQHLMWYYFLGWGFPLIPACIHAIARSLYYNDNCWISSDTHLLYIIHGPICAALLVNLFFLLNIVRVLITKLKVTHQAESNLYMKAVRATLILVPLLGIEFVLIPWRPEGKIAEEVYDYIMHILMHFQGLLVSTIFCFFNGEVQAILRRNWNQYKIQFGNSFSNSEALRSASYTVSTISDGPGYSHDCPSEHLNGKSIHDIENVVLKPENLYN
T5 chain 2: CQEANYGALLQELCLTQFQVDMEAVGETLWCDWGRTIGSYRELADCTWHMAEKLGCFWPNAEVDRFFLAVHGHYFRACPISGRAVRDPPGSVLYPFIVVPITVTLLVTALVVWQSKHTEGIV
Kind of experiment: cell-based or functional assay.

Experiment [8] concerns the target T6, human adrenomedullin receptor 1 (hCRLR + hRAMP2) (human, UniProt O60895 43-175). In words: cell-based or functional assay.
For experiment [9], the target named is T6, human adrenomedullin receptor 1 (hCRLR …). Kind of experiment: immunohistochemistry, HEK cells expressing recombinant human adrenomedullin receptor 1 (CRLR+RAMP2), staining intensity (visual score); the text says no staining was observed. The protocol:
as §1

T4 sequence (P30988 25-474): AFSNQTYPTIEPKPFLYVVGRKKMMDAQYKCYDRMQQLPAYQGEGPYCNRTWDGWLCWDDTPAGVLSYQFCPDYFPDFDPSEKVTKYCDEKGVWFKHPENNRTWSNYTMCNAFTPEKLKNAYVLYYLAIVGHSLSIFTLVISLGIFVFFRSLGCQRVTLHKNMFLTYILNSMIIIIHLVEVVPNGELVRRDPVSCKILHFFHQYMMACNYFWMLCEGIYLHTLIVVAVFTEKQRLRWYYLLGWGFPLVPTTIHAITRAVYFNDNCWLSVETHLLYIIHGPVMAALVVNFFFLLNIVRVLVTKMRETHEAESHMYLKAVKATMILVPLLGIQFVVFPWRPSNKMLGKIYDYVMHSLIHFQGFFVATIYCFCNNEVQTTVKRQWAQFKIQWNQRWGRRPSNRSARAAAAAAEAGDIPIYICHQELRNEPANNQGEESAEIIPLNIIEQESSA
T2 sequence (O60896 24-148): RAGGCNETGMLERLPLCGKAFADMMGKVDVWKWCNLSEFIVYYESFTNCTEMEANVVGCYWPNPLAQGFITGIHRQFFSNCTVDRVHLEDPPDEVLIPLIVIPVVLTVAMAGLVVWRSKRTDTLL

B1: 32H7 (antibody, human IgG2, kappa, V domains shown)
VH: QVQLVESGGGVVQPGRSLRLSCAASGFTFSSYGMHWVRQAPGKGLEWVAVIWYDGSNKYYADSVKGRFIISRDKSKNTLYLQMNSLRAEDTAVYYCARAGGIAAAGLYYYYGMDVWGQGTTVTVSS
VL: EIVLTQSPGTLSLSPGERATLSCRASQSVSSGYLTWYQQKPGQAPRLLIYGASSRATGIPDRFSGSGSGTDFTLTISRLEPEDFAVYYCQQYGNSLCRFGQGTKLEIKR
notes: also called 32H7.1G
As for B1, the binding result in experiment [1] is “binds”; in [2], “no binding”; in [3], “binds”; in experiment [4] it was “no binding”; in [9], “no binding”. Further, the “cAMP assay IC50” value in experiment [5] was over 1000 nM; in experiment [6], over 1000 nM; in experiment [7] it was 1.93 nM; in [8], over 1000 nM.
